The source of these data is PMC12903857.

Experiment [1] deals with 15-mer A-RAF peptide. As to the kind of experiment: fluorescence polarisation; fluorescence anisotropy; Kd of the 15-mer peptides, told apart by the paper from the appKd in the presence of DMSO. Background: Polarisation of emitted light reports the rotation of a fluorescent probe.
Experiment [2] addresses 15-mer A-RAF peptide. As to the kind of experiment: fluorescence polarisation; fluorescence anisotropy protein titration: 14-3-3σ titrated into 10 nM labeled peptide in the presence of DMSO; apparent.
The target in a further experiment is 15-mer B-RAF peptide. The experiment is described as follows: fluorescence polarisation; fluorescence anisotropy protein titration: 14-3-3σ titrated into 10 nM labeled peptide in the presence of a saturating concentration (100 μM) of a covalent compound, which is named in the quantity of each row; apparent.

Turning to “14-3-3σ (from UniProt P31947 1-248) (natural protein)”, in the experiment with 15-mer A-RAF peptide [1], the Kd is 8 µM. The Kd with 15-mer A-RAF peptide [2] is 3 µM. In addition, in the experiment with 15-mer B-RAF peptide, the fold stabilization with 22 (against DMSO) was 448 fold and the fold stabilization with 23 (against DMSO) was found to be 448 fold.
